Assay results taken from the DeepSol protein solubility set.

Experiment: soluble on expression in E. coli; label from the status in PepcDB or PDB records

Sequence	soluble on expression in E. coli
MSAFASSDRAEKSGIALEAQQKIYEKYDKNLAGEILQWVQNVTGQSFDTQGDADNLVKVFQDGSLLCTLANSLKPGSVKKVNTSAMAFKKMENISFFLKFAEEYVQKSELFQTVDLYEGQDPNAVLICLASLARKSEKNFGRSGLGPKEAQGDRREWTDEQLKAGHNVIGLQMGSNKGATASGLNMGNTRHM	not soluble
DPAVTYYRLEEVAKRNTAEETWMVIHGRVYDITRFLSEHPGGEEILLEQAGADATESFEDIGHSPDAREMLKQYYIGDVHPNDLKP	soluble
MKDKDLLVLAAKAADDKRAEDMVVLNMQGISPIADYFIICHGNSDKQVQAIAREIKAKAHEFQIDVQRMEGFDEARWVLVDLGDVVAHVFHKDERNHYNLERLWGDVPREDITEELGQLEHHHHHH	not soluble
HPKLVSSTPAEGSEGAAPAKIELHFSENLVTQFSGAKLVMTAMPGMEHSPMAVKAAVSGGGDPKTMVITPASPLTAGTYKVDWRAVSSDTFPITGSVTFKVK	soluble
MRAELWQEQRLQLSLTKELVQAIELLQYSAADLEAFLYEQSLENPFLEIRRTRVRQRPSRTERDQKQWLENIGARAETLVGHLLSQLPALKLGDREERIVRYLIASLDEDGYLRVPLAELAARFSASEQEMERGLRLVQSLDPPGVGARDLAECLLLQLERLPERDELAETIVRYHFVPFAEKSWKTLAKQLGVSLGELQRVFELIRTLEPRPGIHYSSETLPLVVPDVIVTRGADGDWMAAYNDDIHPELGWNRDYERRIAASGDRHAEQFIKEKYRQFTWLAKSLEQRKQTLLHLMAVIIDRQRSCLEFGLSALKPMTMREVAEELGVHESTVSRAVRHKYVQTPFGTVELRRFFSNAATAAGDEAASSAHVKAIMEALISEEDRRAPLSDQQLADLLRDRYGIAISRRTVAKYREQLRIPSSAKRRQYIGLP	not soluble
MGSDKIHHHHHHMSFDLALFSSKLRRCREQFEKSLVEVTTATGIPENILAALENGERQPTGDEVLIFADYYLCDYQFFISNERVASFDQTETLFRRYGEEFSKEDRLAVQEFLFLCECEDFLLKLVQTHIYKPFSFIKRGNYYIGHGKEAAKALRKHLGYASNAVRMDVYEDFRSLGFHIFRRQLGNSNISGLFIKHPTAGKCILVNYSEDIYRQRFTAAHESAHGILDDEQEFVISLKTDKKNLVEVRANNFASDYLMPPEFLQKIPDSQTWTPEKAIEWANKLKVSTEALANALKSANFISENVEIQIKAVRVPRDLKVDPELPESLSFGSRQRREKLLKRGLSNFYVGLCFDVYEQGFISAGRVAEMLLVSKYELTEIASIYGRTIRYGD	not soluble
MGSDKIHHHHHHMAKKHEPFVIGDVSVAAGTQQSVKLPAAKLYNDTPMDLHVEVFHGTKAGPVLLVCAAIHGDELNGIEICRRLLGRVNAKTLTGTLLIVPIVNVFGFIQQSRYLPDRRDLNRCFPGSAKGALASRLAHLFSSILVKRATHIVDLHTGAIHRDNLPQIRCDTDDEVMLDMANAFGAPVIMSSKAREGSMRGYANSLNIPCILYEAGEALRFSDMSIKSGVNGVINVMRCLSMTKGKIKTKSTSVNASRSYWVRSESDGLVNIKLKLGERVSKGQVLANIVNPLGGEPSPLLAPTDGIIIGNSNIPVTNEGEALFHIAQFSGDEIEIINDNLDDFMQEYA	not soluble
SLENVLASHSKMQGALEKVQIELGRRDSEIAGLKKERDLNQQRVQKLEAEVDQWQARMLVMEDQHNSEIESLQKALGVAREDNRKLAMSLEQALQTNNHLQTKLDHIQEQLESKELERQNLETFKDRMTEESKVEAELHAERIEALRKQFQTERETTKKVAQREVAELKKALDEANFRSVEVSRTNRELRQKLAELEKILESNKEKIKNQKTQIKLHLSAKANNAQNIERMKVVWETSSHFLDTL	soluble
MGTVHARSLDPLPMNGPDFGSPDDADLVEVEPQKKQEILENKDVVVQRVHFEGLGRTKDDLVAHEIGQVFKAKNLIEVMRKSHEAREKLLRLGVFRNVEVLIDTCEGEDAVPNGLDVTFEVTELRRVTGSYNTMVGNNEGSMVLGLKLPNLFGRAEKMTFQFSYGTKETSYGLSFFKPQVGNFERNFSVNLYKVTGQFPWSSLRETDRGVSAEINFPIWKTSHTLKWEGVWRELGCLARTASFTIREESGHTLKSSLSHSMVIDSRNASILPKSGALLKINQELAGYTGGDVSFLKEDFELQLNRQLTWDSVLSTSLWGGMLVPIGDRPSSIADRFYLGGPTSVRGFSMYSIGPQSEGDYLGGEAYWAGGVHLYTPLPFRPGRGGFGDLFRTHFFLNAGNLCNLNYGEGPGAHLRRLAECIRWSYGAGLVLRLGNIARLELNYCIPMGVQSGDRICDGVQFGAGIRFL	soluble
MKYPPSLVSLIRELSRLPGIGPKSAQRLAFHLFEQPREDIERLASALLEAKRDLHVCPICFNITDAEKCDVCADPSRDQRTICVVEEPGDVIALERSGEYRGLYHVLHGVLSPMNGVGPDKLHIKPLLPRVGQGMEVILATGTTVEGDATALYLQRLLEPLGAAISRIAYGVPVGGSLEYTDEVTLGRALTGRQTVSKPQPPQRPGDEDGADGAAVPASRLEHHHHHH	soluble
MKFKELSPSTYAEEFIRSKILVEEDGTAIKSQRELSADLGVSRNAIKYALKRLQYDGDIRIKERQGIEINKKRDINLLSMEPMSKELKQAEMHIKHISSEIIKTPDSLVDFFGNATELAEIKRIRLDDKDVVSFEISYLDNRKFEDIASVNFNECSLYQILENRYGKLPIYGYENITCVLANESLATKLNVKINTPLYQVDSYNYSDDDKAVEHTAQFLPANKIKYHFKAKNIFDYQEDDDDDII	not soluble
MSGNQNGENVQQKKEKMCSIGETIYTWTQNKHATTYVGTYTKAFFSGEVCREIREHDEFLGMSFSSFF	not soluble
MGSDKIHHHHHHMKNFIRKLIRALTAIRLETDRYKHSTLRIIINWLTAFLKDLFSAQEIRLYGLADPEDGANRIRQYVSKEMADRFYRKYNPGAAVPNIEDKFIFTTLCLQHHLPIPATYGIFKQGIVKTFDERIFQESSRFRDFIRELEPGEYLLKPNNGMLGLGLSILEIDDQGSLKFQGKSITADDLYRELCSIEVTLPASSKGDSVDMDFEGLLFQQRIANHPEITKLTGFKMLQTIRICTHVTDNNQVEILFAFMKLAGQEGLADAFNLGKTGNMLAKIDPATGKFCNVYAMDQQQGYLVETTHHAVTQANLLNFTVPHWQACLTLAMKLSTTFLPLRAVGWDIAITDNRPVVLEGNDNWVPVVPFDINIDKLKQYKLKS	not soluble
QAVGGKIADDAQKVAGLYAEKKRTNWTQANGVAGKISHKIQSLLGMRDAGSRVQAFVAFMADGKGRPGATMLDLGDGWMRATRVIKGEAALIDFQCDSDGKVVDARHPGRFPVLPQGNEREAFKTVLQELKFRGAETLSKVPVYYVNRNTRGYVIPTHGYVVAGHPNRGRKSGAVLYGVGGDPKRGPVALDEKLLGHLVGRSDSKTSSKLSAPVKAAISALAGASFATREDFYDAYCAVRGDAVDPLERHNEISSIYRLLPLSTMEMWPKKADDYRVARPAAPERDLRAFENLPKDIGRKAQLKKVSNVDSIDLLEAKRQFTLHQLYQDEMLGRNGTGVPSADFKPKVDAQRRDQLVASTPKFQRLPPHTTDKVGNCNTGASSLLQRAVDTYTEKNNLPPEKVTAASIFGIGSSHRLAIWDPLDGSSSNKSSKDR	not soluble
MGSDKIHHHHHHMIDFDSLTHDQQLGILQETAEAATANYDLPADVSVDMINLSENATYKIAARDGRRWALRIHRDGYHSRTAIQSELAWLTDLRQTGIVLTPVPVAGKDGEQIQRVGHARLAQPRHVVLSQWETGSEPGIGEALGEPFELLGEVTARMHIHARQWKRPSWFSRHVWDFETSLGEERPHWGRWRDGIGVDAAKARLFGRTAELIGRRLAAFGKGHDRFGLIHCDLRLANLLIDGKTVKVIDFDDCGFGWYMYDAATPISFYEHEPQAADLIRSWTTGYRRVLDLPKADEDEIPTFVMLRRLLLVAWIGSHAETDLAKSMGLPYTEGTVGLCEAYLSKF	not soluble
MNKKYPKINYIGNKEKIASWICDQLPSDVDTVADVFSGGCSFAYEAKKRGYRVITNDILAINYQIALALIENNHETLNDDDVAMIFSGSPHAGFMSQRYSEKFYFHDECQQLDLYRKNIGKLNNQYKRALAFTLMRRAMIRKMPYSRFTIPWEKVKQLRDEEYSYAKYGRRRAYHNESFQSHFLQNLDDYNQAVFNNGWRHHAFNQDIFDLLPNIQADAVYLDPPYTGTMNNYFGFYGLLDSYITSSIPKPFANHFMDKKQAVELFKRVINHLKPFKYWLLSYNNASYPNRDELEEMLGKNGRNVQILETPHVYKVTGKEKKQSHKEILFLVENT	not soluble
MGHHHHHHENLYFQSHLYFQSHMDVAPLNLGMIAAYYYINYTTIELFSMSLNAKTKVRGLIEIISNAAEYENIPIRHHEDNLLRQLAQKVPHKLNNPKFNDPHVKTNLLLQAHLSRMQLSAELQSDTEEILSKAIRLIQACVDVLSSNGWLSPALAAMELAQMVTQAMWSKDSYLKQLPHFTSEHIKRCTDKGVESVFDIMEMEDEERNALLQLTDSQIADVARFCNRYPNIELSYEVVDKDSIRSGGPVVVLVQLEREEEVTGPVIAPLFPQKREEGWWVVIGDAKSNSLISIKRLTLQQKAKVKLDFVAPATGAHNYTLYFMSDAYMGCDQEYKFSVDVKEAETDSDSD	soluble
DVTGLPTGFRDLDRITTGLHPDQLIILAARPAVGKTAFVLNIAQNVGTKQNRPVAIFSLEMGAESLVDRMLAAEGMVDSHSLRTGQLTDQDWNNVTIAQGALADAPIYIDDTPGIKITEIRARSRKLSQEVDDGLGLIVIDYLQLISGTRPENRQQEVSEISRQLKILAKELKVPVIALSQLSRGVEQRQDKRPVLSDI	not soluble
MGHHHHHHSHMASGFIEIANKQGLTATLLPFGATLAKLTFPDKNGKNQDLVLGFDTIDEFEKDAASIGKTVGRVANRIKNSTLHFDGKQYTMTPNNGPHYLHGGPNGLGYRKWEVVRHAPESVSFSVRANEQDDGLPGDAKIDVTYTVNDRNQLIIEHHATCDTPGLLALTNHAYWNLDGSDTVAEHFLEMEADEFVEVDDTFCPTGAIRSVTDTGFDFRSGKQLKESGKDAEELLDLDNDLVITKKTPPSTPSTYLRFWSEKSGIELSITTSYPVIHLYASKFLDCKGKKGEHYKANKALAIEPQFHSAAPNFDHFPDVSLRPGDHYCQEIVYTFSHVN	soluble
MGSDKIHHHHHHMRESVVKLNEYTLRIFSLNTIVVGSGAAGLNAVDRVFSFGQKDVALLTDNLKWGTSRNTGSDKQTYYKLTLAGNVPDSVYELAETLFNGGSMDGDIALVEAALSARAFFRLVELGVPFPHSRYGEYVGYKTDHDPKQRATSAGPLTSYYMCEKLLEEIRRKGIKIFEGYQVIGILTDRNEEKTIGLIALDLNNIDDPEKRYVLFNVKNIIYATGGPAGMFYFHSVYPPVHFGATGIAFEAGVMGKNLTEWQFGIASKKFRWNLSGTYQQVIPRYVSTDENGNDEREFLEEYFPDPSTMLNAIFLKGYQWPFDVRKIKNYGSSLIDILVFYETVIKGRRVWLDFTRNPSWGSKNGELDFSLLGKEAYEYLKNSGALFGRPIDRLEKMNRPAIEVYLQHGIDLRKEYLEIGVCAQHNNGGLHGNIWWESNLKHFFPVGEVNGSHGVYRPGGSALNSGQVGGVRAAQYIVENYSGDPLCEEEILEEAKDQILKKIELGESFVKKITGKSNVSSILKEISERSMRSMGIVRSLEEAGKGKNEALRDFNNLIEKVELSSIRQLPFAFRLYDVLLTQYVYLSAVENYIESGGKSRGSYIVHDPTGELPVPNLPEMFRYSLAGESFNKKIQRVRCKENRCEFFWDPVKEIPREDTWFETIWNSFMRREVFR	not soluble
CPDRWMKYGNHCYYFSVEEKDWNSSLEFCLARDSHLLVITDNQEMSLLQVFLSEAFSWIGLRNNSGWRWEDGSPLNFSRISSNSFVQTCGAINKNGLQASSCEVPLHWVCKK	soluble
